The values below come from US20230322882A1 (NANJING NORMAL UNIVERSITY, published 2023).

The target of assay [1] is T1, CD25, CD122 and CD132 receptor molecules on HEK-Blue IL-2 cells (UniProt P01589 22-272; P14784 27-551; P31785 23-369, limits assumed).
T1 sequence (looked up) 1: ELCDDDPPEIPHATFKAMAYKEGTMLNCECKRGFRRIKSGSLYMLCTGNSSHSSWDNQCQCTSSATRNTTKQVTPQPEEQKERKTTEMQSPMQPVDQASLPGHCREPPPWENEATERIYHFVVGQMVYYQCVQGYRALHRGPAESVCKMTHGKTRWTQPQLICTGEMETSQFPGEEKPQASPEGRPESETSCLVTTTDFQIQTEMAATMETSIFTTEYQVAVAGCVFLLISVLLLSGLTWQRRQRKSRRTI
T1 sequence (looked up) 2: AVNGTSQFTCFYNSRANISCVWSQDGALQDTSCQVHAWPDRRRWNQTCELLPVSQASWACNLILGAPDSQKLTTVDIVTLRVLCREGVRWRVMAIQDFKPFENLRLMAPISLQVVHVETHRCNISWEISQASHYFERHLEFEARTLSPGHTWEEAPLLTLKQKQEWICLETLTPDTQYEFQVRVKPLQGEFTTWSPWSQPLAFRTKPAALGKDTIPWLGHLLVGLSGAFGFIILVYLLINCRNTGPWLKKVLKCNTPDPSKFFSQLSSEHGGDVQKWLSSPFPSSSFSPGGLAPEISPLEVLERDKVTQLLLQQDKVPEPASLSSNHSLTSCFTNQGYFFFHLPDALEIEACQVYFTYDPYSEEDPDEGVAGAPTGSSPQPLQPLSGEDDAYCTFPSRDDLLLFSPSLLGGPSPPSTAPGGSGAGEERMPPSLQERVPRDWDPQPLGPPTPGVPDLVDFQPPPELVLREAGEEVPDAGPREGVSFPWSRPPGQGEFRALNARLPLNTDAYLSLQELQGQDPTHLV
T1 sequence (looked up) 3: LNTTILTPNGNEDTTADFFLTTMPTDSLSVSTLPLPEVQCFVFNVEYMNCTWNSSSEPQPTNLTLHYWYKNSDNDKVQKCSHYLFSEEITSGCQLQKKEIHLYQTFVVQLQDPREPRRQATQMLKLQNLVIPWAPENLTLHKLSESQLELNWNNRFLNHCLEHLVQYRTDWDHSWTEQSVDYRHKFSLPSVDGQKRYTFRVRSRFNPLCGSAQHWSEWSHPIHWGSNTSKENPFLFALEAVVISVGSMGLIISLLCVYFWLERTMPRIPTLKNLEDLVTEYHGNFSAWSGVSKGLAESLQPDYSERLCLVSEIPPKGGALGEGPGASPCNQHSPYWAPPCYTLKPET
Kind of assay: cell-based or functional assay.

In assay [2] the target is T1, CD25, CD122 and CD132 receptor …. Kind of assay: cell-based or functional assay. This is another data set of the same source.

Changes are numbered by the printed parent chain. Where two headings read alike, the source gives them in different places.

B1: Polypeptide dimer 1 (SEQ ID NO: 31 + SEQ ID NO: 32) (Fc fusion)
chain 1: HHHHHHTCPPCPAPEAAGGPSVFLFPPKPKDTLMISRTPEVTCVVVDVSHEDPEVKFNWYVDGVEVHNAKTKPREEQYNSTYRVVSVLTVLHQDWLNGKEYKCKVSNKALGAPIEKTISKAKGQPREPQVYTLPPCREEMTKNQVSLWCLVKGFYPSDIAVEWESNGQPENNYKTTPPVLDSDGSFFLYSKLTVDKSRWQQGNVFSCSVMHEALHNHYTQKSLSLSPGGGGGSGGGGSNFHLRPRDLISNINVIVLELKGSETTFMCEYADETATIVEFLNRWITFSQSIISTLTGSGPASSSTKKTQLQLEHLLLDLQMILNGINNYKNPKLTRMLTFKFYMPKKATELKHLQCLEEELKPLEEVLNLAQSK
chain 2: HTCPPCPAPEAAGGPSVFLFPPKPKDTLMISRTPEVTCVVVDVSHEDPEVKFNWYVDGVEVHNAKTKPREEQYNSTYRVVSVLTVLHQDWLNGKEYKCKVSNKALGAPIEKTISKAKGQPREPQVCTLPPSREEMTKNQVSLSCAVKGFYPSDIAVEWESNGQPENNYKTTPPVLDSDGSFFLVSKLTVDKSRWQQGNVFSCSVMHEALHNHYTQKSLSLSPGGGGGSGGGGSELCDDDPPEIPHATFKAMAYKEGTMLNCECKRGFRRIKSGSLYMLCTGNSSHSSWDNQCQCTSSATRNTTKQVTPQPEEQKERKTTEMQSPMQPVDQASLPGHCREPPPWENEATERIYHFVVGQMVYYQCVQGYRALHRGPAESVCKMTHGKTRWTQPQLICTGDYKDDDDK
Regarding B1, in assay [1], the “EC50 (pM), STAT5-regulated SEAP reporter in HEK-Blue IL-2 cells” value was 10.8 pM.

B2: Polypeptide dimer 2 (SEQ ID NO: 33 + SEQ ID NO: 34) (Fc fusion)
chain 1: B1 chain 1 with Y131C, C136S, W148S, L150A, Y189V
chain 2: B1 chain 2 with C126Y, S131C, S143W, A145L, V184Y
Consider B2, for which the “EC50 (pM), STAT5-regulated SEAP reporter in HEK-Blue IL-2 cells” value in assay [2] came out at 10.2 pM.
